Assay results taken from patent US20230002480A1.

Columns and labels:
Assay in all cases: cell-based or functional assay
[1] = target: HIV-1 Env of pseudovirus CAP45.2.00.G3 (HIV-1)
[2] = target: HIV-1 Env of pseudovirus 620345.c01 (HIV-1)
[3] = target: HIV-1 Env of pseudovirus X1193_c1 (HIV-1)
[4] = target: HIV-1 Env of pseudovirus THRO4156.18 (HIV-1)
[5] = target: HIV-1 Env of pseudovirus 3817.v2.c59 (HIV-1)
[6] = target: HIV-1 Env of pseudovirus 3103.v3.c10 (HIV-1)
[7] = target: HIV-1 Env of pseudovirus CAAN5342.A2 (HIV-1)
[8] = target: HIV-1 Env of pseudovirus SC422661.8 (HIV-1)
[9] = target: HIV-1 Env of pseudovirus T255-34 (HIV-1)
[10] = target: HIV-1 Env of pseudovirus WITO4160.33 (HIV-1)
[11] = target: HIV-1 Env of pseudovirus HIV-001428-2.42 (HIV-1)
[12] = target: HIV-1 Env of pseudovirus RHPA4259.7 (HIV-1)
[13] = target: HIV-1 Env of pseudovirus 211-9 (HIV-1)
[14] = target: HIV-1 Env of pseudovirus 6240_08_TA5_4622 (HIV-1)
[15] = target: HIV-1 Env of pseudovirus 6480.v4.c25 (HIV-1)
[16] = target: HIV-1 Env of pseudovirus Ce0393_C3 (HIV-1)
[17] = target: HIV-1 Env of pseudovirus 0815.v3.c3 (HIV-1)
[18] = target: HIV-1 Env of pseudovirus BF1266.431a (HIV-1)
[19] = target: HIV-1 Env of pseudovirus CAP210.2.00.E8 (HIV-1)
[20] = target: HIV-1 Env of pseudovirus Ce1172_H1 (HIV-1)
[21] = target: HIV-1 Env of pseudovirus C2101.c01 (HIV-1)
[22] = target: HIV-1 Env of pseudovirus C3347.c11 (HIV-1)
[23] = target: HIV-1 Env of pseudovirus HIV-16055-2.3 (HIV-1)
[24] = target: HIV-1 Env of pseudovirus 6244_13_B5_4576 (HIV-1)
[25] = target: HIV-1 Env of pseudovirus Q769.d22 (HIV-1)
[26] = target: HIV-1 Env of pseudovirus ZM109F.PB4 (HIV-1)
[27] = target: HIV-1 Env of pseudovirus X2131_C1_B5 (HIV-1)
[28] = target: HIV-1 Env of pseudovirus 246F C1G (HIV-1)
[29] = target: HIV-1 Env of pseudovirus 6535.3 (HIV-1)
[30] = target: HIV-1 Env of pseudovirus CNE58 (HIV-1)
[31] = target: HIV-1 Env of pseudovirus BJOX025000.01.1 (HIV-1)
[32] = target: HIV-1 Env of pseudovirus CNE30 (HIV-1)
[33] = target: HIV-1 Env of pseudovirus 191955_A11 (HIV-1)
[34] = target: HIV-1 Env of pseudovirus 9004SS_A3_4 (HIV-1)
[35] = target: HIV-1 Env of pseudovirus 1394C9G1(Rev-) (HIV-1)

VRC01 (antibody)
IC80, titer in TZM.bl cells [1]: > 50 µg/mL
IC50, titer in TZM.bl cells [2]: > 50 µg/mL
IC80, titer in TZM.bl cells [2]: > 50 µg/mL
IC50, titer in TZM.bl cells [3]: 0.11 µg/mL
IC80, titer in TZM.bl cells [3]: 0.32 µg/mL
IC80, titer in TZM.bl cells [4]: 23 µg/mL
IC50, titer in TZM.bl cells [5]: > 50 µg/mL
IC80, titer in TZM.bl cells [5]: > 50 µg/mL
IC50, titer in TZM.bl cells [6]: 0.93 µg/mL
IC80, titer in TZM.bl cells [6]: 2.49 µg/mL
IC50, titer in TZM.bl cells [7]: 0.82 µg/mL
IC80, titer in TZM.bl cells [7]: 2.8 µg/mL
IC50, titer in TZM.bl cells [8]: 0.08 µg/mL
IC80, titer in TZM.bl cells [8]: 0.265 µg/mL
IC50, titer in TZM.bl cells [9]: 0.7 µg/mL
IC80, titer in TZM.bl cells [9]: 2.7 µg/mL
IC50, titer in TZM.bl cells [10]: 0.15 µg/mL
IC80, titer in TZM.bl cells [10]: 0.41 µg/mL
IC50, titer in TZM.bl cells [11]: 0.02 µg/mL
IC80, titer in TZM.bl cells [11]: 0.06 µg/mL
IC50, titer in TZM.bl cells [12]: 0.06 µg/mL
IC80, titer in TZM.bl cells [12]: 0.185 µg/mL
IC50, titer in TZM.bl cells [13]: 14.3 µg/mL
IC80, titer in TZM.bl cells [13]: > 50 µg/mL
IC50, titer in TZM.bl cells [14]: 0.61 µg/mL
IC80, titer in TZM.bl cells [14]: 1.82 µg/mL
IC50, titer in TZM.bl cells [15]: 0.04 µg/mL
IC80, titer in TZM.bl cells [15]: 0.09 µg/mL
IC50, titer in TZM.bl cells [16]: 0.62 µg/mL
IC80, titer in TZM.bl cells [16]: 2.37 µg/mL
IC50, titer in TZM.bl cells [17]: 0.06 µg/mL
IC80, titer in TZM.bl cells [17]: 0.13 µg/mL
IC50, titer in TZM.bl cells [18]: 0.07 µg/mL
IC80, titer in TZM.bl cells [18]: 0.23 µg/mL
IC50, titer in TZM.bl cells [19]: > 50 µg/mL
IC80, titer in TZM.bl cells [19]: > 50 µg/mL
IC50, titer in TZM.bl cells [20]: > 10 µg/mL
IC80, titer in TZM.bl cells [20]: > 10 µg/mL
IC50, titer in TZM.bl cells [21]: 0.36 µg/mL
IC80, titer in TZM.bl cells [21]: 1.17 µg/mL
IC50, titer in TZM.bl cells [22]: 0.17 µg/mL
IC80, titer in TZM.bl cells [22]: 0.58 µg/mL
IC50, titer in TZM.bl cells [23]: 0.08 µg/mL
IC80, titer in TZM.bl cells [23]: 0.26 µg/mL
IC50, titer in TZM.bl cells [24]: 0.21 µg/mL
IC80, titer in TZM.bl cells [24]: 0.53 µg/mL
IC50, titer in TZM.bl cells [25]: 0.08 µg/mL
IC80, titer in TZM.bl cells [25]: 0.29 µg/mL
IC50, titer in TZM.bl cells [26]: 0.13 µg/mL
IC80, titer in TZM.bl cells [26]: 0.75 µg/mL
IC50, titer in TZM.bl cells [27]: 0.51 µg/mL
IC80, titer in TZM.bl cells [27]: 1.54 µg/mL
IC50, titer in TZM.bl cells [28]: > 10 µg/mL
IC80, titer in TZM.bl cells [28]: > 10 µg/mL
IC50, titer in TZM.bl cells [29]: 0.54 µg/mL
IC80, titer in TZM.bl cells [29]: 2.7 µg/mL

NIH 45-46 (antibody)
neutralization IC50 [30]: 0.25 µg/mL
neutralization IC80 [30]: 1.49 µg/mL
neutralization IC50 [1]: > 50 µg/mL
neutralization IC80 [1]: > 50 µg/mL
IC50, titer in TZM.bl cells [2]: > 30 µg/mL
IC80, titer in TZM.bl cells [2]: > 30 µg/mL
IC50, titer in TZM.bl cells [3]: 0.04 µg/mL
IC80, titer in TZM.bl cells [3]: 0.16 µg/mL
neutralization IC50 [4]: 1.59 µg/mL
neutralization IC80 [4]: 6.02 µg/mL
IC50, titer in TZM.bl cells [5]: > 50 µg/mL
IC80, titer in TZM.bl cells [5]: > 50 µg/mL
IC50, titer in TZM.bl cells [6]: 1.66 µg/mL
IC80, titer in TZM.bl cells [6]: 6.57 µg/mL
neutralization IC50 [7]: 0.11 µg/mL
neutralization IC80 [7]: 0.33 µg/mL
neutralization IC50 [8]: 0.01 µg/mL
neutralization IC80 [8]: 0.07 µg/mL
IC50, titer in TZM.bl cells [31]: 0.18 µg/mL
IC80, titer in TZM.bl cells [31]: 10 µg/mL
IC50, titer in TZM.bl cells [9]: 0.23 µg/mL
IC80, titer in TZM.bl cells [9]: 2.38 µg/mL
neutralization IC50 [10]: 0.01 µg/mL
neutralization IC80 [10]: 0.08 µg/mL
neutralization IC50 [11]: < 0.001 µg/mL
neutralization IC80 [11]: 0.01 µg/mL
neutralization IC50 [12]: < 0.05 µg/mL
neutralization IC80 [12]: < 0.05 µg/mL
IC50, titer in TZM.bl cells [13]: > 50 µg/mL
IC80, titer in TZM.bl cells [13]: > 50 µg/mL
neutralization IC50 [14]: 0.44 µg/mL
neutralization IC80 [14]: 1.55 µg/mL
IC50, titer in TZM.bl cells [15]: 0.02 µg/mL
IC80, titer in TZM.bl cells [15]: 0.08 µg/mL
neutralization IC50 [16]: 0.32 µg/mL
neutralization IC80 [16]: 1.07 µg/mL
neutralization IC50 [32]: 0.34 µg/mL
neutralization IC80 [32]: 1.48 µg/mL
IC50, titer in TZM.bl cells [17]: 0.01 µg/mL
IC80, titer in TZM.bl cells [17]: 0.03 µg/mL
neutralization IC50 [18]: 0.01 µg/mL
neutralization IC80 [18]: 0.03 µg/mL
neutralization IC50 [33]: 0.11 µg/mL
neutralization IC80 [33]: 0.43 µg/mL
neutralization IC50 [19]: > 50 µg/mL
neutralization IC80 [19]: > 50 µg/mL
neutralization IC50 [20]: > 50 µg/mL
neutralization IC80 [20]: > 50 µg/mL
IC50, titer in TZM.bl cells [21]: 12.8 µg/mL
IC80, titer in TZM.bl cells [21]: > 50 µg/mL
IC50, titer in TZM.bl cells [22]: 0.03 µg/mL
IC80, titer in TZM.bl cells [22]: 0.18 µg/mL
neutralization IC50 [23]: 0.02 µg/mL
neutralization IC80 [23]: 0.06 µg/mL
neutralization IC50 [24]: 0.07 µg/mL
neutralization IC80 [24]: 0.26 µg/mL
neutralization IC50 [25]: 0.01 µg/mL
neutralization IC80 [25]: 0.04 µg/mL
neutralization IC50 [34]: 0.18 µg/mL
neutralization IC80 [34]: 0.65 µg/mL
neutralization IC50 [26]: 0.22 µg/mL
neutralization IC80 [26]: 0.22 µg/mL
IC50, titer in TZM.bl cells [27]: 0.2 µg/mL
IC80, titer in TZM.bl cells [27]: 0.9 µg/mL
neutralization IC50 [28]: > 50 µg/mL
neutralization IC80 [28]: > 50 µg/mL
neutralization IC50 [35]: 0.09 µg/mL
neutralization IC80 [35]: 0.38 µg/mL
neutralization IC50 [29]: 0.14 µg/mL
neutralization IC80 [29]: 0.28 µg/mL
